“And” between values parts separate entries of the source, which are not always exact repeats. Equal entries are not always repeated. Positions of bridges follow the written chain, without caps; N, C: chain ends. No end group written: not given here.
T1: rDIII (West Nile virus, UniProt P06935)
T1 construct: rDIII – recombinant domain III; made in house; host or cells: E. coli M15
T1 sequence (P06935 584-692 limits assumed): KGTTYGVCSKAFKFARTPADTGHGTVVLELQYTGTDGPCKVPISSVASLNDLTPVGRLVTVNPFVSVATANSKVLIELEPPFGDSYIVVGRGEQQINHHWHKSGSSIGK

T2: interaction between rDIII and ~ 15 kDa receptor of hBMECs (West Nile virus, UniProt P06935)
T2 construct: rDIII – recombinant domain III; made in house; host or cells: E. coli M15
T2 sequence (P06935 584-692 limits assumed): T1 sequence (P06935 584-692 limits assumed)

T3: interaction between rDIII and proteins of hBMECs (West Nile virus, UniProt P06935)
T3 construct: rDIII – recombinant domain III; made in house; host or cells: E. coli M15
T3 sequence (P06935 584-692 limits assumed): T1 sequence (P06935 584-692 limits assumed)

T4: recombinant domain III (DIII) of the envelope (E) glycoprotein of West Nile virus (West Nile virus)
T4 chain: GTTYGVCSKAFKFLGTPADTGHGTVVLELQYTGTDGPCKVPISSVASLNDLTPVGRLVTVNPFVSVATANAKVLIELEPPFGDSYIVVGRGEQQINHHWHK

B1: 7-mer cyclic peptide CP15 (ACX7CGGGS form of CDPRHSKFC) (peptide)
peptide: ACDPRHSKFCGGGS
modifications: disulfide 2-10 (inferred)
notes: additional alanine at the N-terminus (ACX7CGGGS); peptide of phage clone CC15; C-terminal linker; source: E. coli SHuffle T5, purified; N-terminal tag cleaved with enterokinase and removed on nickel beads; not shown: His6, N-terminal, cleaved; 28 aa tag, N-terminal, cleaved
B2: 7-mer cyclic peptide CP12 (ACX7CGGGS form of CTYENHRTC) (peptide)
peptide: ACTYENHRTCGGGS
modifications: disulfide 2-10 (inferred)
notes: additional alanine at the N-terminus (ACX7CGGGS); peptide of phage clone CC12; C-terminal linker; source: E. coli SHuffle T5, purified; N-terminal tag cleaved with enterokinase and removed on nickel beads; not shown: His6, N-terminal, cleaved; 28 aa tag, N-terminal, cleaved
B3: 7-mer cyclic peptide CP6 (ACX7CGGGS form of CMQTQRAHC) (peptide)
peptide: ACMQTQRAHCGGGS
modifications: disulfide 2-10 (inferred)
notes: additional alanine at the N-terminus (ACX7CGGGS); peptide of phage clone CC6; C-terminal linker; source: E. coli SHuffle T5, purified; N-terminal tag cleaved with enterokinase and removed on nickel beads; not shown: His6, N-terminal, cleaved; 28 aa tag, N-terminal, cleaved
B4: 7-mer cyclic peptide CP2 (ACX7CGGGS form of CTKTDVHFC) (peptide)
peptide: ACTKTDVHFCGGGS
modifications: disulfide 2-10 (inferred)
notes: additional alanine at the N-terminus (ACX7CGGGS); peptide of phage clone CC2; C-terminal linker; source: E. coli SHuffle T5, purified; N-terminal tag cleaved with enterokinase and removed on nickel beads; not shown: His6, N-terminal, cleaved; 28 aa tag, N-terminal, cleaved
B5: 7-mer cyclic peptide CP16 (ACX7CGGGS form of CLAQSHPLC) (peptide)
peptide: ACLAQSHPLCGGGS
modifications: disulfide 2-10 (inferred)
notes: additional alanine at the N-terminus (ACX7CGGGS); peptide of phage clone CC16; C-terminal linker; also called C16; source: E. coli SHuffle T5, purified; N-terminal tag cleaved with enterokinase and removed on nickel beads; not shown: His6, N-terminal, cleaved; 28 aa tag, N-terminal, cleaved
B6: 7-mer cyclic peptide CP4 (ACX7CGGGS form of CIHSSTRAC) (peptide)
peptide: ACIHSSTRACGGGS
modifications: disulfide 2-10 (inferred)
notes: additional alanine at the N-terminus (ACX7CGGGS); peptide of phage clone CC4; C-terminal linker; source: E. coli SHuffle T5, purified; N-terminal tag cleaved with enterokinase and removed on nickel beads; not shown: His6, N-terminal, cleaved; 28 aa tag, N-terminal, cleaved
B7: 12-mer linear peptide LP3 (X12GGGS form of SGVYKVAYDWQH) (peptide)
peptide: SGVYKVAYDWQHGGGS
notes: peptide of phage clone LC3; C-terminal linker; source: E. coli SHuffle T5, purified; N-terminal tag cleaved with enterokinase and removed on nickel beads; not shown: His6, N-terminal, cleaved; 28 aa tag, N-terminal, cleaved

Assays:
rDIII = target: T1, rDIII; assay: ELISA of the binding of 7-mer cyclic and 12-mer linear peptides to rDIII; conditions: peptides coated through C-terminus in CovaLink NH plates; 1 µg rDIII; HisProbe-HRP; negative control subtracted
Procedure: The 7-mer cyclic and 12-mer linear peptides were covalently bound in CovaLink NH microwell plates and their binding to rDIII was corroborated by ELISA. Details are presented in Supplementary Method S11.
Confirmation of the binding of 7-mer cyclic and 12-mer linear peptides to rDIII by ELISA. The 7-mer cyclic and 12-mer linear peptides were covalently bound in CovaLink NH microwell plates overnight at 4°C as per the manufacturer´s instructions (Thermo Fischer Scientific).
Unbound peptides were washed with PBS (pH 7.4) and non-specific sites were blocked with 0.5% BSA in PBS for 1 h at room temperature. After blocking, wells were washed 2 times for 2 min with CovaBuffer (2 M NaCl, 40 mM MgSO4.7H2O, 0.05% Tween 20, PBS; pH 7.2). One microgram of rDIII diluted in 0.05% PBST was added in separate wells and incubated for 1 h at room temperature with constant shaking. Wells were washed 3 times for 2 min with CovaBuffer and interaction was detected with HisProbe-HRP conjugate (1:5,000 dilution in 0.1% BSA in PBST; Thermo Fisher Scientific) for 30 min at room temperature with constant shaking. After 6 washings, the chromogenic reaction was developed using a 1-Step Ultra TMB-ELISA substrate (Thermo Fisher Scientific). After 25 min, the reaction was stopped with 2 M H2SO4 and absorbance was measured at 450 nm. For negative controls, either rDIII or peptides were excluded from the protocol. The assay was performed in triplicates. […]

[1] = target: T2, interaction between rDIII and ~ 15 kDa receptor of hBMECs; assay: Blocking of interaction between rDIII and proteins of hBMECs by peptides (Western blot); type: binding, West Nile virus / human; conditions: 2.5 µg (0.19 nM) rDIII pre-incubated with tenfold molar excess (1.9 nM) of peptide
Procedure: (§1) First, concentration-dependent ELISA and Western blot were performed to get the minimum concentration of rDIII required to show its interaction with hBMECs proteins. Details are presented in Supplementary Method S12 and Supplementary Method S13. Subsequently, the ability of 7-mer and 12-mer peptides to block the interaction between rDIII and proteins of hBMECs was tested. A tenfold molar excess of peptides was incubated with rDIII for 1 h at room temperature. Such pre-incubated rDIII was subsequently used in the assays. Details of both methods are described in Supplementary Method S12 and Supplementary Method S13. […]
Blocking of interaction between rDIII and proteins of hBMECs by peptides (Western blot).
Two hundred micrograms of proteins extracted from hBMECs were separated on 2-well PAGE […]
gel (12% polyacrylamide gel) and transferred on 0.45 μm nitrocellulose membrane (Amersham Protran; GE Healthcare) for 1 h at 30 V. Details of LDS-PAGE are described in Supplementary Methods S7. The membrane was cut horizontally to obtain proteins of molecular weight between ~10 kDa to ~25 kDa. Subsequently, this membrane was sliced vertically to obtain 0.3 cm strips, which were then used in Western blot (Supplementary Fig.
The NC strips with transblotted hBMECs proteins were first incubated with rDIII at various concentrations to find out the minimal concentration of rDIII required to detect the interaction with hBMECs proteins. Non-specific binding sites were blocked with 1% BSA in 0.05% TBST (pH 7.2) for 1 h at room temperature and constant shaking followed by a washing step for 5 min with 0.05% TBST. The NC strips were incubated with rDIII at different concentrations (5 µg, 2.5 µg, 2 µg, 1 µg, 500 ng) diluted in 1 mL of 0.05% TBST for 3 h at room temperature and constant shaking. After 3 washings with 0.05% TBST, strips were incubated with HisProbe-HRP conjugate (1:5,000 dilution in 0.1% BSA in 0.05% TBST; Thermo Fisher Scientific) for 30 min at room temperature. Six washings, each of 5 min were performed before incubating the strips in SuperSignal chemiluminescence substrate (Thermo Fisher Scientific). The signal was captured on the C-DiGit Blot Scanner (Odyssey CLx, LI-COR Biosciences). For negative control, rDIII was excluded from the above-mentioned protocol.
To block the interaction, the NC strips were blocked as described above.
Simultaneously, 2.5 µg (0.19 nM) of rDIII were pre-incubated with 2.75 µg of each peptide (10-fold molar excess; 1.9 nM) in TBS for 1 h at room temperature. Further on, strips were incubated with pre-incubated rDIII for 3 h at room temperature with constant shaking. After 3 washings with 0.05% TBST, strips were incubated with HisProbe-HRP conjugate as described above. […]

[2] = target: T3, interaction between rDIII and proteins of hBMECs; assay: Blocking of interaction between rDIII and proteins of hBMECs by peptides (ELISA); type: binding, West Nile virus / human; conditions: rDIII 0.15 nM pre-incubated with tenfold molar excess (1.5 nM) of peptide; ELISA
Procedure: as §1
Blocking of interaction between rDIII and proteins of hBMECs by peptides (ELISA). First, different concentrations of rDIII were tested to get the minimum concentration of rDIII required to show the interaction with hBMECs proteins. Protein extract of hBMECs (4 μg/well) diluted in coating buffer (0.5 M Na2CO3, 0.5 M NaHCO3; pH 9.5) was incubated in the microtiter wells for overnight at 4°C. Unbound hBMECs proteins were washed with PBS (pH 7.3) containing 0.05% Tween 20 (0.05% PBST) and non-specific binding sites were blocked with 0.5% BSA in 0.05% PBST. rDIII at different concentrations (5 µg, 2.5 µg, 2 µg, 1 µg, 500 […]
ng, 250 ng, 125 ng, and 62.5 ng) diluted in 0.05% PBST was added into wells and incubated for 3 h at room temperature and constant shaking. Wells were washed 3 times with 0.05% PBST and incubated with HisProbe-HRP conjugate (1:5,000 dilution in 0.1% BSA in 0.05% PBST; Thermo Fisher Scientific) for 30 min at room temperature and constant shaking. […] The reaction was stopped after 25 min with 2 M H2SO4 and the absorbance was measured at 450 nm. […]
After blocking, the wells were washed 3 times with 0.05% PBST, pre-incubated rDIII was added and incubated for 3 h at room temperature with constant shaking. […] The reaction was stopped after 25 min with 2 M H2SO4 and the absorbance was measured at 450 nm. hBMECs proteins incubated with untreated rDIII were used as a positive control. […]

[3] = target: T4, recombinant domain III (DIII) of the …; assay: ELISA; blocking ELISA: rDIII (2 µg, printed as 0.15 nM) pre-incubated 1 h at room temperature with a tenfold molar excess (1.5 nM) of peptide, then added to coated hBMEC proteins; negative control (no rDIII) subtracted; conditions: both partners purified
[4] = target: T4, recombinant domain III (DIII) of the …; assay: cell-based or functional assay

Molecule	A450, ELISA of peptide binding to rDIII (rDIII)	inhibition of the interaction between rDIII and ~ 15 kDa hBMECs receptor (Western blot) [1]	inhibition of the interaction between rDIII and hBMECs proteins [2] [%]	A450 of rDIII on proteins of hBMECs after pre-incubation with the peptide [3]	percent inhibition of rDIII binding to proteins of hBMECs [3] [%]	neutralisation of infection of cultured cells by virus like particles (C, M and E proteins, luciferase reporter), EC50; the peptide blocks DIII binding to endothelial cells [4] [nM]
CDPRHSKFC (ACDPRHSKFCGGGS; disulfide 2-10 (inferred)) [CP15]	> 1.5	did not show clear inhibition of the interaction	–	–	–	–
CMQTQRAHC (ACMQTQRAHCGGGS; disulfide 2-10 (inferred)) [CP6]	> 1.5	did not show clear inhibition of the interaction	–	–	–	–
CTNANHYFC (ACTNANHYFCGGGS; disulfide 2-10 (inferred)) [CP7]	> 1.5	–	37	–	–	–
HYSWSWIAYSPG (HYSWSWIAYSPGGGGS; left off: His6, N-terminal, cleaved | 28 aa tag, N-terminal, cleaved) [LP19]	0.082	–	–	–	–	–
SGVYKVAYDWQH (SGVYKVAYDWQHGGGS; left off: His6, N-terminal, cleaved | 28 aa tag, N-terminal, cleaved) [LP3]	2.564 and > 1.5	did not show clear inhibition of the interaction	–	–	–	–
B1	–	–	–	0.423	60	–
B2	–	–	–	0.418	61	10.4
B3	–	–	–	0.56	47	–
B4	–	–	–	0.117	89	2.43
B5	–	–	–	0.427	60	14.8
B6	–	–	–	0.346	67	17
B7	–	–	–	0.647	39	–
